From paper PMC11573651

Biological target: His-NifH^RS (Roseiflexus sp. RS-1 dinitrogenase reductase NifH) (Roseiflexus sp. RS-1)
Experiment: not stated; molecular size and quaternary structure of the purified protein (Table 1); the method is in SI Appendix Figs. S8, S9, S14 and S15

stoichiometry N: 2
Substance: His-NifH^RS (Roseiflexus sp. RS-1 dinitrogenase reductase NifH) (natural protein)
